Source: the supplement of paper PMC10567573

B1: ZER1 (parent)
chain: FDGPEAWGVCEPQREEVEERMWAA
B2: TBX5 (parent)
chain: FHEVGTEMIITKAGRRMFPSYKVK

Variants of: B1
Assay: protein stability index of a GFP-peptide fusion (GPS, HEK-293T) (PSI 1-6); higher = more stable
Conditions: c terminus: a fixed tail appended
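Also: lentivirally expressed fusions sorted by FACS into six bins by GFP to DsRed ratio, PSI derived from sequencing read proportions per bin multiplied by bin number.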

Protein stability index of substitutions, site by site:
Q13: D 2.92; A 2.72; I 2.76; G 2.75; M 2.46; E 2.86; R 2.21; T 2.43; N 2.94; V 3.23; L 2.68; S 2.71; H 2.44; F 2.31; Y 2.39; K 2.91; W 2.17
V9: Q 3.05; N 3.35; S 4.12; E 4.03; D 4.92; R 2.5; F 2.94; G 3.25; H 3.18; Y 2.48; W 3.22; I 2.09; M 2.63; K 2.59; T 3.15; C 2.03; A 3.21; P 3.08
E5: L 1.64; Q 3.54; G 3.26; P 3.42; F 3.67; K 3.13; S 2.61; V 3.33; I 2.94; Y 2.76; W 2.54; D 2.99; N 1.95; H 2.59; A 2.82; C 3.73; R 3.48
D2: F 1.68; E 2.08; K 3.26; Q 2.69; W 3.21; L 2.62; I 5.1; R 1.8
R14: Q 2.09; I 2.97; A 2.18; W 2.52; L 1.8; M 3.08; Y 2.46; H 2.31; G 3.36; V 2.16; F 2.74; N 2.86; T 2.54; E 3.16; S 2.56; D 2.88; C 2.25; P 3.26
C10: Q 3.26; S 2.66; R 2.6; V 2.55; G 4.03; D 4.42; N 3.26; I 2.86; T 3.3; H 3.64; Y 2.86; W 2.6; K 3.48; A 3.02; M 3.13; F 3.21; L 3.15; E 3.93; P 3.64
P4: L 2.47; E 4.48; M 3.65; G 2.73; Q 3.25; T 3.25; Y 1.95; A 2.48; K 3.02; H 1.79; F 1.91; R 2.81; D 3.89; I 3.23; S 3.29; C 2.63; V 2.48
G3: E 1.52; C 3.88; W 2.12; S 1.96; P 4.42; D 2.56; I 1.78; M 2.1; V 1.63; F 2.06; L 1.62; N 2.58; T 1.98; H 1.87
P12: G 2.69; S 3.14; W 3.81; K 2.9; D 2.88; T 3.17; H 3.17; E 3.17; F 2.93; C 2.33; Y 2.64; R 3.53; V 2.47; M 3.3; I 2.31; Q 3.22; L 2.47
A6: K 3.02; I 2.43; H 2.38; R 3.35; S 3.53; D 4.67; Y 1.82; G 3.38; V 2.76; L 1.56; C 2.57; P 3.77; Q 3.59; W 1.63; E 4.45; T 2.48; N 3.6
G8: D 3.75; I 2.25; K 2.25; V 1.6; N 2.62; E 4.19; M 1.79; A 1.96; Y 3.39; Q 2.74; F 1.55; S 1.95; H 2.33; L 3.64; P 4.17; C 2.33; R 2.42
E15: G 2.19; P 1.46; H 1.79; Q 2.5; I 2.02; K 2.92; V 2.63; T 2.62; A 2.45; S 2.13; N 2.31; D 2.43; R 2.79; Y 2.32; F 1.56; C 3.02; L 2.2; W 1.52; M 2.34
E16: C 2.24; A 2.33; D 2.14; F 2.62
W7: C 4.66; E 4.54; S 4.92; D 5.1; M 3.64; V 4.98; Y 3.98; N 4.58; G 4.94; P 4.52; I 4.89; A 4.29; H 4.63; K 4.81; Q 5.22; R 3.97; T 4.69
F1: D 4.33; A 5.03; L 3.93; P 5.04; M 3.3; S 4.77; Q 4.88; N 4.87; Y 3.15; G 4.72; C 4.17; K 3.97; R 4.45; W 4.5; T 4.94; I 4.69; E 4.99
E11: M 3.24; T 2.58; C 2.15; F 1.89; L 1.85; V 1.96; R 1.93; S 2.73; P 2.64; K 2.12; D 2.67; N 1.83; Y 1.87; W 1.81; I 3.01; Q 1.9; A 1.87; H 2.55

Variants of: B2
Assay: as above
Conditions: c terminus: a fixed tail appended

Protein stability index, by site and new letter:
K24: M 2.55; C 2.62; P 1.55; E 1.89; A 1.99; L 1.99; N 1.08; W 1.65; G 2.03; I 1.54; Q 1.33; F 2.83; H 1.59; S 1.15; R 1.51; V 1.65; T 2.41; Y 2.08; D 2.2
Y21: N 2.55; P 2.13; C 2.21; W 1.87; H 3.03; M 1.95; K 2.21; S 2.61; I 1.48; R 3.16; D 2.64; A 2.66; Q 2.7; G 2.51; F 2.83; T 2.42; L 2.15; V 1.86; E 2.92
V23: H 2.17; G 2.9; M 1.78; T 2.14; K 2.24; P 2.8; D 2.52; F 2.23; S 2.27; A 2.35; Y 1.82; W 2.2; C 1.84; E 2.5; R 2.71; Q 2.09; N 2.26; I 1.97; L 1.41
K22: V 1.43; N 2.03; Y 2.89; M 2.01; R 2.45; T 1.51; C 1.86; I 2.03; D 2.34; S 2.18; W 1.98; G 2.28; F 1.65; H 1.55; L 2.14; A 1.97; E 1.9; Q 1.79; P 2.08
S20: T 2.69; Y 2.84; V 1.97; W 2.42
